From patent US20140212439A1 (Daiichi Sankyo, published 2014)
Positions count from the first letter of the chain named. Values belong to the binder of their own block, whether it stands above or below them.

Tests used:
[1] = molecular target: human EPHA2 expressed on cells (human, UniProt P29317 24-976); experiment: cell-based or functional assay
bovine serum albumin = molecular target: T1, bovine serum albumin (bovine, UniProt P02769 25-607); experiment: ELISA on plate-coated BSA
T1 construct: Control protein in the ELISA; also called BSA
Protocol: A solution of an EPHA2 extracellular region polypeptide (manufactured by R&D Systems, Inc., #3035-A2-100) or bovine serum albumin (in the description below and the figures, abbreviated to “BSA”) as a control diluted to 1 μg/ml with PBS was dispensed at 100 μl/well onto an immunoplate (manufactured by Nunc, #442404) and incubated overnight at 4° C. to thereby adsorb the protein to the plate.
The plate was incubated at room temperature for 1 hour. Then, the solution in the wells was removed, and the wells were washed twice with Diluting Buffer. Goat anti-Mouse IgG, Peroxidase Conjugated (manufactured by Millipore (Chemicon), #AP181P) diluted 1000 times with Diluting Buffer was added at 100 μl/well and incubated at room temperature for 1 hour. The solution in the wells was removed, and the wells were washed twice with Diluting Buffer. Then, a color reaction was performed with stirring by the addition of OPD Color Developing Solution at 100 μl/well. After color development, the color reaction was terminated by the addition of 1 M HCl at 100 μl/well. The absorbance at 490 nm was measured using a plate reader (FIG. 7).

Chain of human EPHA2 expressed on cells (P29317 24-976 limits assumed): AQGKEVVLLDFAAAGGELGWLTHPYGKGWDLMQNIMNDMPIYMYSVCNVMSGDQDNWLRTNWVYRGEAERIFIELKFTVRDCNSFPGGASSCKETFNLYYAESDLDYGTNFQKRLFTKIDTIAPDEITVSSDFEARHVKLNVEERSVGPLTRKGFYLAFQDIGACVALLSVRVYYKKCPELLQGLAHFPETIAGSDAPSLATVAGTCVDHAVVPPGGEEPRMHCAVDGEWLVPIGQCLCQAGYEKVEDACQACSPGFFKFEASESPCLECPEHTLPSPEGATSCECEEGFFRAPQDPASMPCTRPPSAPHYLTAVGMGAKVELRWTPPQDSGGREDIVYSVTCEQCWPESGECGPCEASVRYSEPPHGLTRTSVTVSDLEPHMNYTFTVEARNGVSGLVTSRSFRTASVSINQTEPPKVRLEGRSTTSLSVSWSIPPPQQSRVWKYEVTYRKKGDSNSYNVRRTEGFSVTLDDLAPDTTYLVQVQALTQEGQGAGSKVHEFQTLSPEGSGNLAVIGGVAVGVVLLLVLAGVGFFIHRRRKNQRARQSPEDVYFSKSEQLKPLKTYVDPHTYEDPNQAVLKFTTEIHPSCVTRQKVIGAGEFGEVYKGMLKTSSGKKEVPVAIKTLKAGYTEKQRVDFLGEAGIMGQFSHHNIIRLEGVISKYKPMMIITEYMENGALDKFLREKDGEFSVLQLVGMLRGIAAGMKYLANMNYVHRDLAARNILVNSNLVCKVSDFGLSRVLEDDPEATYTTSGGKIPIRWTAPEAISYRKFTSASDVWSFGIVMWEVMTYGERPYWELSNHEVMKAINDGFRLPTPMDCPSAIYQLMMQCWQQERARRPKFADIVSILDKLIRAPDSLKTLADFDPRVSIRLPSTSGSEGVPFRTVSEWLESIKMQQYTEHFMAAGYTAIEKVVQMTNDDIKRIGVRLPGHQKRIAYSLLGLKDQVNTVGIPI
T1 sequence (P02769 25-607 limits assumed): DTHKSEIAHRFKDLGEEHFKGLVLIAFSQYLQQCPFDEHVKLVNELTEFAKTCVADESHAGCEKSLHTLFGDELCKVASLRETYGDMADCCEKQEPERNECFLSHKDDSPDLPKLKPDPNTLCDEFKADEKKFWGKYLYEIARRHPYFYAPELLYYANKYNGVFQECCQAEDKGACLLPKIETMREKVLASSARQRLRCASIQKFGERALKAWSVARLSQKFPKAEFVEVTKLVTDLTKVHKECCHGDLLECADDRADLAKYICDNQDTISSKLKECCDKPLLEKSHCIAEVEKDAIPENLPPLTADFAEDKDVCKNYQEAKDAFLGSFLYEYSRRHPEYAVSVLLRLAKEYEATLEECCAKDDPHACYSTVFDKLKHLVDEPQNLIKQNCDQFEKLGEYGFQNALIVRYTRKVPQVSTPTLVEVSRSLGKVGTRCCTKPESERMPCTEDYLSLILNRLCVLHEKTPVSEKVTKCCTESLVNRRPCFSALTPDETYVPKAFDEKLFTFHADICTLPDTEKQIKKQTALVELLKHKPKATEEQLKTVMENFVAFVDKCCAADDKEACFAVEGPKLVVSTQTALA

EPHA2 protein level after 24 hours, EPHA2/β-actin band intensity relative to mIgG2a (100%), with cross-linking antibody [1]: 69%
EPHA2 protein level after 24 hours, EPHA2/β-actin band intensity relative to mIgG2a (100%), without cross-linking antibody [1]: 70%
binding result (bovine serum albumin): no binding (tested: up to 125 µg/ml)
B1: SH348-1 (antibody produced by hybridoma SH348-1, FERM BP-10836) (antibody, mouse IgG2a, kappa, V domains shown)
VH: QIQLVQSGPELKKPGETVKISCKASGYTFTHYSMHWVKQAPGKGLKWMGWINTYTGEPTYADDFKGRFAFSLETSASTAFLQINNLKNEDTATYFCATYYRYERDFDYWGQGTTLTVSS
VL: DVLMTQSPLSLPVSLGDQASISCRSSQSIVHSNGNTYLEWYLQKPGQSPKLLIYKVSNRFSGVPDRFSGSGSGTDFTLRISRVEAEDLGVYYCFQGSHVPYTFGGGTKLEIKR
modifications: N-terminal pyroglutamic acid
notes: Mouse monoclonal IgG2a, kappa; The ends of the cDNAs are primer-derived; also called bSH348-1 (biotinylated form)

binding result (bovine serum albumin): no binding (tested: up to 125 µg/ml)
B2: SH357-1 (antibody produced by hybridoma SH357-1, FERM BP-10837) (antibody, mouse IgG2a, kappa, V domains shown)
VH: B1 VH with T30I, H31D, A61S, F80Y, N84S, T93S
VL: B1 VL with S7T, N33S, N35I, R79K
notes: Mouse monoclonal IgG2a, kappa; also called bSH357-1 (biotinylated form)
